Results: paper PMC11779849

Experiments:
[1] = biological target: full length W2A-Pcad with an mCherry tag on the C-terminus (human); assay: co-IP; lysates of A431 Pcad-mCherry cells grown 48 h without or with CQY684 Fab (200 nM); anti-mCherry rabbit mAb on magnetic protein G beads pulls down Pcad as bait; p120 detected by Western blot, p120/Pcad ratio normalised to WT -CQY; M2 lysis buffer pH 7.5, 50 mM Tris-HCl, 150 mM NaCl, 1% SDS, 1% Triton-X 100
[2] = biological target: full length WT-Pcad with an mCherry tag on the C-terminus (human) (UniProt P22223); assay: as above
full length WT-Pcad with an mCherry tag on the C-terminus (human), sequence (P22223 25-829): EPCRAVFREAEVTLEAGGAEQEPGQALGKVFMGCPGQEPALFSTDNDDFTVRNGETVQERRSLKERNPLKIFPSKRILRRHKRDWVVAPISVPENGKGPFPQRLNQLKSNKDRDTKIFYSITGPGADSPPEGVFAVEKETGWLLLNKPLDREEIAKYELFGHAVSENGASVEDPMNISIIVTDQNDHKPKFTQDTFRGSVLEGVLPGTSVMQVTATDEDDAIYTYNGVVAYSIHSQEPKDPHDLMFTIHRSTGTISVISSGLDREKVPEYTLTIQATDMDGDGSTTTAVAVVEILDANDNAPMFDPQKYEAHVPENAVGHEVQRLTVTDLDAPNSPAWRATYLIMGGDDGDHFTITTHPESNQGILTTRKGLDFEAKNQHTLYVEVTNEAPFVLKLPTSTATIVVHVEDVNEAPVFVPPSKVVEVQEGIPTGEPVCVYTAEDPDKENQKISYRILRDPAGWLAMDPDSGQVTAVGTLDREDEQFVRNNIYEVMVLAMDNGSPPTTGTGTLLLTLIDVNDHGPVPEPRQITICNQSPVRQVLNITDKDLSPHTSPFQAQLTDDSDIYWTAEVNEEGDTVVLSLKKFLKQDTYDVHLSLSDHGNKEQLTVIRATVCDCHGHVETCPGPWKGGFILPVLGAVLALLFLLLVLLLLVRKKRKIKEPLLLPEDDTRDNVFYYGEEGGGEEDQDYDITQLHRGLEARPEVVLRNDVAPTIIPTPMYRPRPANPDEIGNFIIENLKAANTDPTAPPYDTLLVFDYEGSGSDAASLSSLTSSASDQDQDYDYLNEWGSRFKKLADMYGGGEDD

full length W2A-Pcad with an mCherry tag on the C-terminus (human), sequence (P22223 whole entry W109A): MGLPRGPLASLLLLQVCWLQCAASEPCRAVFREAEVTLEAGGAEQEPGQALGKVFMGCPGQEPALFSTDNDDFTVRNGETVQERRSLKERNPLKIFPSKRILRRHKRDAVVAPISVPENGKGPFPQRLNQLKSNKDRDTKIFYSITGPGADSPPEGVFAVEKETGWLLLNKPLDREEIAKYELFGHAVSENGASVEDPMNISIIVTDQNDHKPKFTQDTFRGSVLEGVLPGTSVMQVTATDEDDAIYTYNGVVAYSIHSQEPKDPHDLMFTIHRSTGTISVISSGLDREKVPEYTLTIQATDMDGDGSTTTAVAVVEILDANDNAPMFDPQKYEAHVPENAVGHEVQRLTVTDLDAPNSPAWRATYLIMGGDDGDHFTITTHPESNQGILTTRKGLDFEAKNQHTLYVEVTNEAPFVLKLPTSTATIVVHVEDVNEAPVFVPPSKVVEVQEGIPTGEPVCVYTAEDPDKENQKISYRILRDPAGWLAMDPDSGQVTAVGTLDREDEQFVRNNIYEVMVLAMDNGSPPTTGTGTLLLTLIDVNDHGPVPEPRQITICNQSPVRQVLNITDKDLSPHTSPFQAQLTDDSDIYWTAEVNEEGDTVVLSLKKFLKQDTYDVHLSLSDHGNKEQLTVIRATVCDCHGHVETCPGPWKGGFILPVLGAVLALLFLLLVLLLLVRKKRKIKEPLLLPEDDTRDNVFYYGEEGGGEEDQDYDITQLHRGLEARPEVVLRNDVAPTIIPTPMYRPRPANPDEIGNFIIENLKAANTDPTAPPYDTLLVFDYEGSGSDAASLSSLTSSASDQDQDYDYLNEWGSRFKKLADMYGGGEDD

- p120 associated with Pcad, percent of the WT -CQY condition [1]: 30%
- p120 associated with Pcad in cells grown with CQY684 Fab, percent of the WT -CQY condition [2]: 60%
B1: p120-catenin (natural protein)
chain: MDDSEVESTASILASVKEQEAQFEKLTRALEEERRHVSAQLERVRVSPQDANPLMANGTLTRRHQNGRFVGDADLERQKFSDLKLNGPQDHSHLLYSTIPRMQEPGQIVETYTEEDPEGAMSVVSVETSDDGTTRRTETTVKKVVKTVTTRTVQPVAMGPDGLPVDASSVSNNYIQTLGRDFRKNGNGGPGPYVGQAGTATLPRNFHYPPDGYSRHYEDGYPGGSDNYGSLSRVTRIEERYRPSMEGYRAPSRQDVYGPQPQVRVGGSSVDLHRFHPEPYGLEDDQRSMGYDDLDYGMMSDYGTARRTGTPSDPRRRLRSYEDMIGEEVPSDQYYWAPLAQHERGSLASLDSLRKGGPPPPNWRQPELPEVIAMLGFRLDAVKSNAAAYLQHLCYRNDKVKTDVRKLKGIPVLVGLLDHPKKEVHLGACGALKNISFGRDQDNKIAIKNCDGVPALVRLLRKARDMDLTEVITGTLWNLSSHDSIKMEIVDHALHALTDEVIIPHSGWEREPNEDCKPRHIEWESVLTNTAGCLRNVSSERSEARRKLRECDGLVDALIFIVQAEIGQKDSDSKLVENCVCLLRNLSYQVHREIPQAERYQEAAPNVANNTGPHAASCFGAKKGKDEWFSRGKKPIEDPANDTVDFPKRTSPARGYELLFQPEVVRIYISLLKESKTPAILEASAGAIQNLCAGRWTYGRYIRSALRQEKALSAIADLLTNEHERVVKAASGALRNLAVDARNKELIGKHAIPNLVKNLPGGQQNSSWNFSEDTVISILNTINEVIAENLEAAKKLRETQGIEKLVLINKSGNRSEKEVRAAALVLQTIWGYKELRKPLEKEGWKKSDFQVNLNNASRSQSSHSYDDSTLPLIDRNQKSDKKPDREEIQMSNMGSNTKSLDNNYSTPNERGDHNRTLDRSGDLGDMEPLKGTTPLMQDEGQESLEEELDVLVLDDEGGQVSYPSMQKI
